# In paper PMC6224377 (Frontiers in Immunology, 2018):
# Target: T1, hROR2-ECD-Twin-Strep (soluble human ROR2 extracellular domain fused to a Twin-Strep-tag) (Homo sapiens (Human)., UniProt Q01974)
# T1 construct: signal peptide in the construct; extracellular domain of human receptor tyrosine kinase-like orphan receptor 2 (ROR2), NP_004551.2, amino acids 1-403; Gene synthesis (GenScript), vector pCB14b; also called hROR2-Twin-Strep; human ROR2-ECD-Twin-Strep; not shown: Twin-Strep-tag, C-terminal, kept
# Experiment: ELISA; MaxiSorp plates coated with 2 μg/ml antigen in 100 mM bicarbonate/carbonate buffer; purified monoclonal antibodies from 0.5-2 μg/ml in serial dilutions in PBS-T/1% BSA, 1 h at 37°C; detected with HRP-conjugated F(ab')2 anti-human Fcγ
# Settings: both partners purified
# T1 sequence (Q01974 34-403): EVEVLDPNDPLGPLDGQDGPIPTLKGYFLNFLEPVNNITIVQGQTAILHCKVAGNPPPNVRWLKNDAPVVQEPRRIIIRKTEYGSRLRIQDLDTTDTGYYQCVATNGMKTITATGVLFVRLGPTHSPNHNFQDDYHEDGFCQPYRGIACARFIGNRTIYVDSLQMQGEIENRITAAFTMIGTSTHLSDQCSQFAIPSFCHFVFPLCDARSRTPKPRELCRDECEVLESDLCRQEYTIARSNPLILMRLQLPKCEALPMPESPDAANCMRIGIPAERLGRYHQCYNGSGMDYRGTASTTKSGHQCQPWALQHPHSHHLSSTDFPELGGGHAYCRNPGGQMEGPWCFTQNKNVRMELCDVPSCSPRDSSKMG
row,binding result,Binder
1,binds,"GK-5G12 (antibody, V domains shown) VH: QITLKESGGGVVQPGRSLRLSCAASGFTFRTYGMHWVRQAPGKGLEWVALIWYDGSNKYYADSVKGRFTISRDNSKNTLYLQMNSLRAEDTAVYYCIRVKFGDLYFQHWGQGTLVTVSS VL: EIVLTQSPSSLSASVGDRVTITCRASQGISNYLAWYQQKPGKVPKLLIYAASTLQSGVPSRFSGSGSGTDFTLTISSLQPEDVATYYCQKYNSAPYTFGQGTKLEIK"
2,binds,"GK-5E1 (antibody, V domains shown) VH: QVTLKESGGDVVQPGRSLRLSCAASGFTFRTYGMHWVRQAPGKGPEWVALIWYDGSKKYYADSVKGRFTISRDNSKNTLYLQMNSLRAEDTAVYYCVRVRFGELYFQHWGQGTLVTVSS VL: not shown"
3,binds,"GK-1E5 (antibody, V domains shown) VH: EVQLVESGGGVVQPGRSLRLSCAASGFTFRSYGMHWVRQAPGKGLEWVAIIWYDGSKKYYTDSVQGRFTISRDNSKNTLYLQMNSLRAEDTAVYYCARPGIAMTGLDYWGQGTLVTVSS VL: DIQLTQSPSTLSASVGDRVTITCRASQSISSWLAWYQQKPGKAPKLLIYKASSLESGVPSRFSGSGSGTEFTLTISSLQPDDFATYYCQQYNNYWTFGQGTKVEIK"
4,binds,"GK-2G8 (antibody, V domains shown) VH: QVQLQESGGGVVQPGRSLRLSCAASGFTFRSYGMHWVRQAPGKGLEWVAIIWYDGSKKYYTDSVKGRFTISRDNSKNTLYLQMNSLRAEDTAVYYCARPGVAMTGLDLWGQGTLVTVSS VL: EIVMTQSPSTLSASVGDRVTITCRASQSISSWLAWYQQKPGKAPKLLIYKASSLESGVPSRFSGSGSGTEFTLTISSLQPDDFATYYCQQYNNYWTFGQGTKVDIK"
5,binds,"GK-5A1 (antibody, V domains shown) VH: QVQLVESGGGVVQPGRSLRLSCAASGFTFSSYGMYWVRQAPGKGLEWVAVIWNDGSNKYYADSVKGRFTISRDNSKNTLYLQMNSLRAEDTAVYYCAREGSGWYDYYYGMDVWGQGTTVTVSS VL: EIVLTQSPSTLSASVGDRVTITCRASQSISSWLAWYQQKPGKAPKLLIYKASSLESGVPSRFSGSGSGTEFTLTISSLQPDDFATYYCQQYNSYWTFGQGTKVDIK"
6,binds,"MK-3B12 (antibody, V domains shown) VH: EVQLVESGPGLLKPSETLSLTCAVSGYSISSGYYWGWIRQPPGKGLEWIGSIYQSGSTHYNPSLKSRVTISVDTSKNQFSLKLTSVTAADTAVYYCAREDRAGWYPFDCWGQGTLVTVSS VL: DIVMTQSPSTLSASVGDRVTITCRASQSISSWLAWYQQKPGKAPKLLIYKASSLESGVPSRFSGSGSGTEFTLTISSLQPDDFATYYCQQYNNYWTFGQGTKVEIK"

# Target: T1, hROR2-ECD-Twin-Strep (soluble human …)
# Experiment: SPR; multi-cycle SPR, Biacore T200; antibodies captured on a CM5 Protein A chip or by Protein G immobilized on a CM5 chip (capture levels 148 to 845 RU); hROR2-ECD-Twin-Strep as analyte, 2-fold serial dilutions 40 nM to 2.5 nM in running buffer
# Settings: both partners purified
row,binding result,Binder
1,binds,"MK-7C3 (antibody, V domains shown) VH: EVQLLETGGGVVQPGRSLRLSCVASGFTFRSHGMHWVRQAPGKGLEWVALIWYDGSKKYYADSVKGRFTISRDNSKNTLYLQMNSLRAEDTAVYYCARVGAGLYLDYWGQGTLVTVSS VL: AIRMTQSPSTLSASVGDRVTITCRASQTISNWLAWFQQKPGKAPKVLIYKASSLESGVPSRFSGSGSGTEFTLTISSLQPDDFASYYCQQYNSYSYTFGQGTRLEIK"
2,binds,"GK-22G12 (antibody, V domains shown) VH: EVQLVESGGGLVQSGGSLRLSCAASGFTFSSQRLSWVRQAPGKGLEWVANIKQDGSEKNYVDSVRGRFTISRDIAKNSLYLQMNSLRAEDTAVYYCARDGYRNGWHIPEDYWGQGTLVTVSS VL: DIVMTQSPSSLSASVGDRVTITCRASQGISNYLAWYQQKPGKVPKLLIYAASTLQSGVPSRFSGSGSGTDFTLTISSLQPEDVSTYYCQKHNRAPWTFGQGTKLEIK"
3,binds,"MK-24C10 (antibody, V domains shown) VH: QVQLVESGGGVVQPGRSLRLSCAASGFTFSSYGMHWVRQAPGKGLEWVAVIWFDGTNKHYADSVKGRFTISRDNSKNTLYLQMNSLRAEDTAVYYCARDKGEWFGELRYYYYGMDVWGQGTTVTVSS VL: not shown"
